biological target: T1, FcγRIIIa extracellular domain, C-terminal His tag (human, UniProt P08637 17-208); assay: SPR, binding activity relative to GpH7-A5/GpH7-B3/GpL16-k0 (=100)
T1 construct: extracellular domain; also called 3a
T1 sequence (P08637 other isoform, or with tags, fused parts or gaps): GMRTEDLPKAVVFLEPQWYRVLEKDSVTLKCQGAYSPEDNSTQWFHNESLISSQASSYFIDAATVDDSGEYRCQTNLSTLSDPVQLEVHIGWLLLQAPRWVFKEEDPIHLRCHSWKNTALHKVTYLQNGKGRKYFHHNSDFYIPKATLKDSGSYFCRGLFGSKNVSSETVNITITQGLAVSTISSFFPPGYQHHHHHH

He/Con 3a [%] | Binder
65.8 | GpH7-A5/GpH7-B3 variant G236_10E/GpL16-k0 (antibody, human IgG1, kappa, He Ab; copies: 1 + 1 + 2) heavy 1: not shown heavy 2: not shown light: DIVMTQSPLSLPVTPGEPASISCQASESLVHSNRNTYLHWYLQKPGQSPQLLIYKVSNRFSGVPDRFSGSGSGTDFTLKISRVEAEDVGVYYCSQNTHVPPTFGQGTKVEIERTVAAPSVFIFPPSDEQLKSGTASVVCLLNNFYPREAKVQWKVDNALQSGNSQESVTEQDSKDSTYSLSSTLTLSKADYEKHKVYACEVTHQGLSSPVTKSFNRGEC
50.5 | GpH7-A5/GpH7-B3 variant G237_14T/GpL16-k0 (antibody, human IgG1, kappa, He Ab; copies: 1 + 1 + 2) heavy 1: not shown heavy 2: not shown light: DIVMTQSPLSLPVTPGEPASISCQASESLVHSNRNTYLHWYLQKPGQSPQLLIYKVSNRFSGVPDRFSGSGSGTDFTLKISRVEAEDVGVYYCSQNTHVPPTFGQGTKVEIERTVAAPSVFIFPPSDEQLKSGTASVVCLLNNFYPREAKVQWKVDNALQSGNSQESVTEQDSKDSTYSLSSTLTLSKADYEKHKVYACEVTHQGLSSPVTKSFNRGEC
66.2 | GpH7-A5/GpH7-B3 variant G236_09D/GpL16-k0 (antibody, human IgG1, kappa, He Ab; copies: 1 + 1 + 2) heavy 1: not shown heavy 2: not shown light: DIVMTQSPLSLPVTPGEPASISCQASESLVHSNRNTYLHWYLQKPGQSPQLLIYKVSNRFSGVPDRFSGSGSGTDFTLKISRVEAEDVGVYYCSQNTHVPPTFGQGTKVEIERTVAAPSVFIFPPSDEQLKSGTASVVCLLNNFYPREAKVQWKVDNALQSGNSQESVTEQDSKDSTYSLSSTLTLSKADYEKHKVYACEVTHQGLSSPVTKSFNRGEC
95.7 | GpH7-A5/GpH7-B3 variant H268_01G/GpL16-k0 (antibody, human IgG1, kappa, He Ab; copies: 1 + 1 + 2) heavy 1: not shown heavy 2: not shown light: DIVMTQSPLSLPVTPGEPASISCQASESLVHSNRNTYLHWYLQKPGQSPQLLIYKVSNRFSGVPDRFSGSGSGTDFTLKISRVEAEDVGVYYCSQNTHVPPTFGQGTKVEIERTVAAPSVFIFPPSDEQLKSGTASVVCLLNNFYPREAKVQWKVDNALQSGNSQESVTEQDSKDSTYSLSSTLTLSKADYEKHKVYACEVTHQGLSSPVTKSFNRGEC
51.3 | GpH7-A5/GpH7-B3 variant G237_03V/GpL16-k0 (antibody, human IgG1, kappa, He Ab; copies: 1 + 1 + 2) heavy 1: not shown heavy 2: not shown light: DIVMTQSPLSLPVTPGEPASISCQASESLVHSNRNTYLHWYLQKPGQSPQLLIYKVSNRFSGVPDRFSGSGSGTDFTLKISRVEAEDVGVYYCSQNTHVPPTFGQGTKVEIERTVAAPSVFIFPPSDEQLKSGTASVVCLLNNFYPREAKVQWKVDNALQSGNSQESVTEQDSKDSTYSLSSTLTLSKADYEKHKVYACEVTHQGLSSPVTKSFNRGEC
112 | GpH7-A5/GpH7-B3 variant G236_15Y/GpL16-k0 (antibody, human IgG1, kappa, He Ab; copies: 1 + 1 + 2) heavy 1: not shown heavy 2: not shown light: DIVMTQSPLSLPVTPGEPASISCQASESLVHSNRNTYLHWYLQKPGQSPQLLIYKVSNRFSGVPDRFSGSGSGTDFTLKISRVEAEDVGVYYCSQNTHVPPTFGQGTKVEIERTVAAPSVFIFPPSDEQLKSGTASVVCLLNNFYPREAKVQWKVDNALQSGNSQESVTEQDSKDSTYSLSSTLTLSKADYEKHKVYACEVTHQGLSSPVTKSFNRGEC
126 | GpH7-A5/GpH7-B3 variant G236_20W/GpL16-k0 (antibody, human IgG1, kappa, He Ab; copies: 1 + 1 + 2) heavy 1: not shown heavy 2: not shown light: DIVMTQSPLSLPVTPGEPASISCQASESLVHSNRNTYLHWYLQKPGQSPQLLIYKVSNRFSGVPDRFSGSGSGTDFTLKISRVEAEDVGVYYCSQNTHVPPTFGQGTKVEIERTVAAPSVFIFPPSDEQLKSGTASVVCLLNNFYPREAKVQWKVDNALQSGNSQESVTEQDSKDSTYSLSSTLTLSKADYEKHKVYACEVTHQGLSSPVTKSFNRGEC

Further lines, the binder ahead of its results:

Binder | He/Con 3a [%]
GpH7-A5/GpH7-B3 variant E269_15Y/GpL16-k0 (antibody, human IgG1, kappa, He Ab; copies: 1 + 1 + 2) heavy 1: not shown heavy 2: not shown light: DIVMTQSPLSLPVTPGEPASISCQASESLVHSNRNTYLHWYLQKPGQSPQLLIYKVSNRFSGVPDRFSGSGSGTDFTLKISRVEAEDVGVYYCSQNTHVPPTFGQGTKVEIERTVAAPSVFIFPPSDEQLKSGTASVVCLLNNFYPREAKVQWKVDNALQSGNSQESVTEQDSKDSTYSLSSTLTLSKADYEKHKVYACEVTHQGLSSPVTKSFNRGEC | 51.5
GpH7-A5/GpH7-B3 variant E269_16H/GpL16-k0 (antibody, human IgG1, kappa, He Ab; copies: 1 + 1 + 2) heavy 1: not shown heavy 2: not shown light: DIVMTQSPLSLPVTPGEPASISCQASESLVHSNRNTYLHWYLQKPGQSPQLLIYKVSNRFSGVPDRFSGSGSGTDFTLKISRVEAEDVGVYYCSQNTHVPPTFGQGTKVEIERTVAAPSVFIFPPSDEQLKSGTASVVCLLNNFYPREAKVQWKVDNALQSGNSQESVTEQDSKDSTYSLSSTLTLSKADYEKHKVYACEVTHQGLSSPVTKSFNRGEC | 50.7
GpH7-A5/GpH7-B3 variant G236_03V/GpL16-k0 (antibody, human IgG1, kappa, He Ab; copies: 1 + 1 + 2) heavy 1: not shown heavy 2: not shown light: DIVMTQSPLSLPVTPGEPASISCQASESLVHSNRNTYLHWYLQKPGQSPQLLIYKVSNRFSGVPDRFSGSGSGTDFTLKISRVEAEDVGVYYCSQNTHVPPTFGQGTKVEIERTVAAPSVFIFPPSDEQLKSGTASVVCLLNNFYPREAKVQWKVDNALQSGNSQESVTEQDSKDSTYSLSSTLTLSKADYEKHKVYACEVTHQGLSSPVTKSFNRGEC | 53.8
GpH7-A5/GpH7-B3 variant E269_18N/GpL16-k0 (antibody, human IgG1, kappa, He Ab; copies: 1 + 1 + 2) heavy 1: not shown heavy 2: not shown light: DIVMTQSPLSLPVTPGEPASISCQASESLVHSNRNTYLHWYLQKPGQSPQLLIYKVSNRFSGVPDRFSGSGSGTDFTLKISRVEAEDVGVYYCSQNTHVPPTFGQGTKVEIERTVAAPSVFIFPPSDEQLKSGTASVVCLLNNFYPREAKVQWKVDNALQSGNSQESVTEQDSKDSTYSLSSTLTLSKADYEKHKVYACEVTHQGLSSPVTKSFNRGEC | 57.2
GpH7-A5/GpH7-B3 variant E333_12R/GpL16-k0 (antibody, human IgG1, kappa, He Ab; copies: 1 + 1 + 2) heavy 1: not shown heavy 2: not shown light: DIVMTQSPLSLPVTPGEPASISCQASESLVHSNRNTYLHWYLQKPGQSPQLLIYKVSNRFSGVPDRFSGSGSGTDFTLKISRVEAEDVGVYYCSQNTHVPPTFGQGTKVEIERTVAAPSVFIFPPSDEQLKSGTASVVCLLNNFYPREAKVQWKVDNALQSGNSQESVTEQDSKDSTYSLSSTLTLSKADYEKHKVYACEVTHQGLSSPVTKSFNRGEC | 92.2
GpH7-A5/GpH7-B3 variant E333_06M/GpL16-k0 (antibody, human IgG1, kappa, He Ab; copies: 1 + 1 + 2) heavy 1: not shown heavy 2: not shown light: DIVMTQSPLSLPVTPGEPASISCQASESLVHSNRNTYLHWYLQKPGQSPQLLIYKVSNRFSGVPDRFSGSGSGTDFTLKISRVEAEDVGVYYCSQNTHVPPTFGQGTKVEIERTVAAPSVFIFPPSDEQLKSGTASVVCLLNNFYPREAKVQWKVDNALQSGNSQESVTEQDSKDSTYSLSSTLTLSKADYEKHKVYACEVTHQGLSSPVTKSFNRGEC | 100
GpH7-A5/GpH7-B3 variant E333_11K/GpL16-k0 (antibody, human IgG1, kappa, He Ab; copies: 1 + 1 + 2) heavy 1: not shown heavy 2: not shown light: DIVMTQSPLSLPVTPGEPASISCQASESLVHSNRNTYLHWYLQKPGQSPQLLIYKVSNRFSGVPDRFSGSGSGTDFTLKISRVEAEDVGVYYCSQNTHVPPTFGQGTKVEIERTVAAPSVFIFPPSDEQLKSGTASVVCLLNNFYPREAKVQWKVDNALQSGNSQESVTEQDSKDSTYSLSSTLTLSKADYEKHKVYACEVTHQGLSSPVTKSFNRGEC | 97.7
GpH7-A5/GpH7-B3 variant E269_19Q/GpL16-k0 (antibody, human IgG1, kappa, He Ab; copies: 1 + 1 + 2) heavy 1: not shown heavy 2: not shown light: DIVMTQSPLSLPVTPGEPASISCQASESLVHSNRNTYLHWYLQKPGQSPQLLIYKVSNRFSGVPDRFSGSGSGTDFTLKISRVEAEDVGVYYCSQNTHVPPTFGQGTKVEIERTVAAPSVFIFPPSDEQLKSGTASVVCLLNNFYPREAKVQWKVDNALQSGNSQESVTEQDSKDSTYSLSSTLTLSKADYEKHKVYACEVTHQGLSSPVTKSFNRGEC | 64.3
GpH7-A5/GpH7-B3 variant G236_02A/GpL16-k0 (antibody, human IgG1, kappa, He Ab; copies: 1 + 1 + 2) heavy 1: not shown heavy 2: not shown light: DIVMTQSPLSLPVTPGEPASISCQASESLVHSNRNTYLHWYLQKPGQSPQLLIYKVSNRFSGVPDRFSGSGSGTDFTLKISRVEAEDVGVYYCSQNTHVPPTFGQGTKVEIERTVAAPSVFIFPPSDEQLKSGTASVVCLLNNFYPREAKVQWKVDNALQSGNSQESVTEQDSKDSTYSLSSTLTLSKADYEKHKVYACEVTHQGLSSPVTKSFNRGEC | 77
GpH7-A5/GpH7-B3 variant E333_14T/GpL16-k0 (antibody, human IgG1, kappa, He Ab; copies: 1 + 1 + 2) heavy 1: not shown heavy 2: not shown light: DIVMTQSPLSLPVTPGEPASISCQASESLVHSNRNTYLHWYLQKPGQSPQLLIYKVSNRFSGVPDRFSGSGSGTDFTLKISRVEAEDVGVYYCSQNTHVPPTFGQGTKVEIERTVAAPSVFIFPPSDEQLKSGTASVVCLLNNFYPREAKVQWKVDNALQSGNSQESVTEQDSKDSTYSLSSTLTLSKADYEKHKVYACEVTHQGLSSPVTKSFNRGEC | 100
GpH7-A5/GpH7-B3 variant E333_18N/GpL16-k0 (antibody, human IgG1, kappa, He Ab; copies: 1 + 1 + 2) heavy 1: not shown heavy 2: not shown light: DIVMTQSPLSLPVTPGEPASISCQASESLVHSNRNTYLHWYLQKPGQSPQLLIYKVSNRFSGVPDRFSGSGSGTDFTLKISRVEAEDVGVYYCSQNTHVPPTFGQGTKVEIERTVAAPSVFIFPPSDEQLKSGTASVVCLLNNFYPREAKVQWKVDNALQSGNSQESVTEQDSKDSTYSLSSTLTLSKADYEKHKVYACEVTHQGLSSPVTKSFNRGEC | 76.2
GpH7-A5/GpH7-B3 variant G236_04F/GpL16-k0 (antibody, human IgG1, kappa, He Ab; copies: 1 + 1 + 2) heavy 1: not shown heavy 2: not shown light: DIVMTQSPLSLPVTPGEPASISCQASESLVHSNRNTYLHWYLQKPGQSPQLLIYKVSNRFSGVPDRFSGSGSGTDFTLKISRVEAEDVGVYYCSQNTHVPPTFGQGTKVEIERTVAAPSVFIFPPSDEQLKSGTASVVCLLNNFYPREAKVQWKVDNALQSGNSQESVTEQDSKDSTYSLSSTLTLSKADYEKHKVYACEVTHQGLSSPVTKSFNRGEC | 81
GpH7-A5/GpH7-B3 variant E333_07I/GpL16-k0 (antibody, human IgG1, kappa, He Ab; copies: 1 + 1 + 2) heavy 1: not shown heavy 2: not shown light: DIVMTQSPLSLPVTPGEPASISCQASESLVHSNRNTYLHWYLQKPGQSPQLLIYKVSNRFSGVPDRFSGSGSGTDFTLKISRVEAEDVGVYYCSQNTHVPPTFGQGTKVEIERTVAAPSVFIFPPSDEQLKSGTASVVCLLNNFYPREAKVQWKVDNALQSGNSQESVTEQDSKDSTYSLSSTLTLSKADYEKHKVYACEVTHQGLSSPVTKSFNRGEC | 100
GpH7-A5/GpH7-B3 variant E333_01G/GpL16-k0 (antibody, human IgG1, kappa, He Ab; copies: 1 + 1 + 2) heavy 1: not shown heavy 2: not shown light: DIVMTQSPLSLPVTPGEPASISCQASESLVHSNRNTYLHWYLQKPGQSPQLLIYKVSNRFSGVPDRFSGSGSGTDFTLKISRVEAEDVGVYYCSQNTHVPPTFGQGTKVEIERTVAAPSVFIFPPSDEQLKSGTASVVCLLNNFYPREAKVQWKVDNALQSGNSQESVTEQDSKDSTYSLSSTLTLSKADYEKHKVYACEVTHQGLSSPVTKSFNRGEC | 101
GpH7-A5/GpH7-B3 variant G236_07I/GpL16-k0 (antibody, human IgG1, kappa, He Ab; copies: 1 + 1 + 2) heavy 1: not shown heavy 2: not shown light: DIVMTQSPLSLPVTPGEPASISCQASESLVHSNRNTYLHWYLQKPGQSPQLLIYKVSNRFSGVPDRFSGSGSGTDFTLKISRVEAEDVGVYYCSQNTHVPPTFGQGTKVEIERTVAAPSVFIFPPSDEQLKSGTASVVCLLNNFYPREAKVQWKVDNALQSGNSQESVTEQDSKDSTYSLSSTLTLSKADYEKHKVYACEVTHQGLSSPVTKSFNRGEC | 55.6
